Data: the nanobody polyreactivity screen of Harvey et al. (2022)

Assay: yeast display, Sf9 membrane polyspecificity reagent, FACS + sequencing; frameworks hold sequencing errors
Procedure, shortened: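 Using colony PCR, genes from sorted yeast display clones were amplified, then sequenced on MiSeq at 2 × 250 and filtered by CDR length. The clones had been stained with 10% biotinylated, detergent-solubilized Sf9 membrane reagent for 1 hour at 4 °C and sorted by FACS into low and high (top ~1%) gates on anti-HA and streptavidin fluorescence. Polyreactivity labels come from the gate of origin.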

Sequence	polyreactivity (PSR sort gate)
QVQLVESGGGLVQAGGSLRLSCAASGSTFLYYAMGWYRQAPGKERELVARITTRVGRTYYADSVKGRFTISRDNAKNTVYLQMNSLKPEDTAVYYCATGGSKEMDYWGQGTQVTVSS	high polyreactivity
QVQLVESGGGLVQAGGSLRLSCAASGSTFLYYAMGWYRQAPGKERELVASITGSGSNTYYADSVKGRFTISRDNAKNTVYLQMNSLKREDTAVYYCATDPQSDIPSWLWYWGEYDYWGHGTQVTVSS	low polyreactivity
QVQLVESGGGLVQAGGSLRLSCAASGSTFLYYAMGWYRQAPGKERELVAVITGAGGTNYADSVKGRFTISRDNAKKTVYLQMNSLKPEDTAVYYCAARSPGTRWGDYDYWGQGTQVTVSS	low polyreactivity
QVQLVESGGGLVQAGGSLRLSCAASGSTFLYYTMGWYRQAPGKERELVAAITSGGDSNYADSVKGRFTISRDNAKNTVYLQMNSLKPEDTAVYYCNAEYTWSGTKIYTYKYDYWGQGTQVTVSS	low polyreactivity
QVQLVESGGGLVQAGGSLRLSCAASGSTFNFNAMGWYRQAPGKERELVAAISFSGGSTYYADSVKGRFTISRDNAKNTVYLQMNSLKPEDTAVYYCRPYSRGYGYWGQGTQVTVSS	high polyreactivity
QVQLVESGGGLVQAGGSLRLSCAASGSTFNGNDMGWYRQAPGKERELVATISDGGRTYYADSVKGRFTISRDNAKNTVYLQRNSLKPEDTAVYYCAAPVYVPRAWFYYWGQGTQVTVSS	low polyreactivity
QVQLVESGGGLVQAGGSLRLSCAASGSTFNGNVMGWYRQAPGKERDFVAGISKSGGTTYYADSVKGRFTISRDNAKNTVYLQMNSLKPEDTAVYYCAARGRVRYYPQYYYWGQGTQVTVSS	high polyreactivity
QVQLVESGGGLVQAGGSLRLSCAASGSTFNGYAMGWYRQAPGKERELVADISRGDRTNYADSVKGRFTISRDNAKNTVYLQMKSLKREDTAVYYCAKDWLTDDPDKDPSVEYDYWGQGTQVTVSS	low polyreactivity
QVQLVESGGGLVQAGGSLRLSCAASGSTFNGYTMGCYRQAPGKEREFVATITFSDGSTYYADSVKGRFTISRDNAKNTVYLQMNSLKPEDTAVYYCNVDSPIGYDYWGQGTQVTVSS	low polyreactivity
QVQLVESGGGLVQAGGSLRLSCAASGSTFNHYTMGWYIQAPGKERELVAAISSRGGGTYYADSVKGRFTISRDNAKNTVYLQMNSLKPEDTAVYYCAALISSGIRHSRDYWGQGTQVTVSS	high polyreactivity
QVQLVESGGGLVQAGGSLRLSCAASGSTFNINAMGWYRQAPGKERELVAAISSRGGSTYYADSVKGRFTISRDNAKNTVYLQMNSLKPEDTAVYYCAASPRRVENAGRVRLYYWGQGTQVTVSS	high polyreactivity
QVQLVESGGGLVQAGGSLRLSCAASGSTFNIYAMGWYRQAPGKERELVAAISGNGDRTYYADSVKGRFTISRDNAKNTVYLQMNSLKPEDTAVYYCAAKYYGWGQGTQVTVSS	high polyreactivity
QVQLVESGGGLVQAGGSLRLSCAASGSTFNIYVMGWYRQAPGKERELVAAISTSGRTYYADSVKGRFTISRDNAKNTVYLQMNSLKPEDTAVYYCNAGYWVRKYYHGGYWGQGTQVTVSS	high polyreactivity
QVQLVESGGGLVQAGGSLRLSCAASGSTFNKNAMGWYRQAPGNERELVAVISRSGGSTHYADSVKGRFTISRDNAKNTVYLQMNSLKPEDTAVYYCATPFSYRRRTSASPYLYDYWGQGTQVTVSS	high polyreactivity
QVQLVESGGGLVQAGGSLRLSCAASGSTFNKYAMVWYRQAPGKERELVAAITGSGGRTYYADSVKGRFTISRDTAKNTVYLQMNSLKPEHTAVYYCNAGITHGYDYWGQGTQVSVSS	high polyreactivity
QVQLVESGGGLVQAGGSLRLSCAASGSTFNLYAIGWYRQAPGKEREFVAAIRGRGGNTYADSVKRRFTISRDNAKNTVYLQMNSLKPEDTAVYYCAAPLLRDLRSPYSYKYWGQGTQVTVSS	low polyreactivity
QVQLVESGGGLVQAGGSLRLSCAASGSTFNPYAMGWYRQAPGKERELVAAINSRGGSTYYADSVKGRFTISRDNAKNTVYLQMNSLKPEDSAVYYCAARTRRRTSAYEYWGQGTQVTVSS	high polyreactivity
QVQLVESGGGLVQAGGSLRLSCAASGSTFNQYDMGWYRQAPGKERELVAAITWSGTSTYYADSVKGRFTISRDNAKNTVYLQMNSLTPEDTAVYYCAADDPFHSSCWTYRYGYWGQGTQVTVSS	low polyreactivity
QVQLVESGGGLVQAGGSLRLSCAASGSTFNRNAMGWYRQAPGKERDLVAAISWRGDTTSYADSVKGRSTISRDNAKNTFYLQMNSLNPEDTAVYYCATAHDYAFYRYWYVPSEYNYWGQGTQVTVSS	low polyreactivity
QVQLVESGGGLVQAGGSLRLSCAASGSTFNRYAMGWYRQAPGKARELVATNNSGTSTNYADSVKGRFTISRDNAKNTVYLQKNSLKPEDTAVYYCAKTFRRSVGGYGYEYWGQGTQVTVSS	low polyreactivity
QVQLVESGGGLVQAGGSLRLSCAASGSTFNSNVMGWYRQAPGKERELVAAISRSGGNTYYADSVKGRFTISRDNAKNTVYLQMNSLKPEDTAVYYCNKAGRYPYDYWGQGTQVTVSS	high polyreactivity

Sequence	polyreactivity (PSR sort gate)
QVQLVESGGGLVQAGGSLRLSCAASGSTFNSYAMGWYRQAPGKERELVAAISRSGGRTYYADSVKGRFTISRDNAKNNVYLQMSSMKPEDTAVYYCAAVHNANRGYPFEYWGQGTQVTVSS	high polyreactivity
QVQLVESGGGLVQAGGSLRLSCAASGSTFNVNAMGWYRQSPGKERELVAAITSSGGSTNYADSVKGRFTFSRDNAKYTVYLQMNSLNPEDTAFYYCAAYAIYFSRLNLGYDYWGQGTQVTVSS	low polyreactivity
QVQLVESGGGLVQAGGSLRLSCAASGSTFNVYAMGWYRQAPGKERELVARISWSGGNTYYADSVKGRFTISRDNAKNTVYLQMNSLKPEDTAVYYCATKGYTGYAYRYGYWGQGTQVTVSS	high polyreactivity
QVQLVESGGGLVQAGGSLRLSCAASGSTFNYNAMGWYRQAPGKERELVAAITYSGSSTYYADSVKGRFTISRDNAKNTVYLQMNSLKPEDTAVYYCAAPPYNRPGYGYDYWGQGTQVTVSS	high polyreactivity
QVQLVESGGGLVQAGGSLRLSCAASGSTFPANAMGWYRQAPGKERELVAAISSVGSTNYADSVRGRFTLSRDNAKNTVYLQMNSLKPEDTAVYYCATQPTWYTVGDLDYWGQGTQVTVSS	low polyreactivity
QVQLVESGGGLVQAGGSLRLSCAASGSTFPDNAMGWYRQAPGKERELVAAISFSSGSTYYADSVKGRFTISRDNAKNTVYLQMNSLKPEDTAVYYCAADSYPAYLGFVGFDYWGQGTQVTVSS	low polyreactivity
QVQLVESGGGLVQAGGSLRLSCAASGSTFPDNAMGWYRQAPGKERELVAAISFSSGSTYYADSVKGRFTISRDNAKNTVYLQMNSLKPEDTAVYYCAVANPSPYEWIAYYYWGQGTQVTVSS	low polyreactivity
QVQLVESGGGLVQAGGSLRLSCAASGSTFPFYAMGWYRQAPGKEREFVAVISSSGGSTYYADSVKGRFTISRDNAKNTVYLQMNSLKPEDTAVYYCARSYPGRWYDYWGQGTQVTVSS	high polyreactivity
QVQLVESGGGLVQAGGSLRLSCAASGSTFPGNTMGSYRQAPGKERELVAAITWNGGSTYYADSVKGRFTISRDNAKNNVYLQMNRLKPEDTAVYYCATRARVTYYYWGLGTQVTVSS	high polyreactivity
QVQLVESGGGLVQAGGSLRLSCAASGSTFPHNAMGWYRQAPGKERELVAAISVGGGSSHYADSVKGRFTISRDNAKNNVYLQMNSLKPEDTAVYYCAKDYAYQYSFVTYDYWGQGTQVTVSS	low polyreactivity
QVQLVESGGGLVQAGGSLRLSCAASGSTFPHYAMGWYRQAPGKERELVAAISVRGGRTYYADSVKGRFTISRDNAKNTVYLQMNSLKPEDTAVYYCNKYYYFTKYGYWGQGTQVTVSS	high polyreactivity
QVQLVESGGGLVQAGGSLRLSCAASGSTFPHYAMGWYRQAPGKERELVAAISWSGSSTYYADSVKGRFTISRDNAKNTVYLQMNSLKPEDTAVYYCNKLPRRAPQFTYDYWGQGTLVTVSS	high polyreactivity
QVQLVESGGGLVQAGGSLRLSCAASGSTFPHYAMGWYRQAPGKERELVAAISWSGSSTYYADSVKGRFTISRDNAKNTVYLQMNSLKPEDTAVYYCNKLPRRAPQFTYDYWGQGTQVTVSS	high polyreactivity
QVQLVESGGGLVQAGGSLRLSCAASGSTFPIYAMGWYRQAPGKERELVAAITWRGGSRTYYADSVKGRFTISRDNAKNTVYLQMNSLKPEDTAVYYCAAEYQWPLYGYWGQGTQVTVSS	low polyreactivity
QVQLVESGGGLVQAGGSLRLSCAASGSTFPKNAKGWYRPAPGKERELVAAINTGGSTYYADSVKGRFTISRDNAKNTVYLQMNSLKPEDTAVYYCAARDNYHRDVGHPYDYWGQGTQVTVSS	low polyreactivity
QVQLVESGGGLVQAGGSLRLSCAASGSTFPKYAMGWYRQAPGKERELVAGISWRGGRTYYADSVKGRFTISRDNAKNTVYLQMNSLKPEDTAVYYCATDYYAFNQGEVKWYDYWGQGTQVSVSS	high polyreactivity
QVQLVESGGGLVQAGGSLRLSCAASGSTFPKYAMGWYRQAPGKERELVASISVTTGSTYYADSVKGRFTISRDNAKITVYLQMNSLKPEDTAVYYCAKYRPGIPYYQYGSWGQGTQVTVSS	high polyreactivity
QVQLVESGGGLVQAGGSLRLSCAASGSTFPLYAMGWYRQAPGKERELVAAITGGGGRTYYADSVKGRFTISRDNAKNTVYLQMNSLKPEDTAVYYCATDSFGYDWYWGQGTQVTVSS	low polyreactivity
QVQLVESGGGLVQAGGSLRLSCAASGSTFPLYAMGWYRQAPGKERELVAAITSGGGNTYYADSVKGRFTISRDNAKNTVYLQMNSLKPEDTAVYYCAAVGGYKSYYSYEYDYWGQGTQVTVSS	low polyreactivity
QVQLVESGGGLVQAGGSLRLSCAASGSTFPLYTRGWYRQAPGKERELVAAISGGSTTYYADSVKGRFTISRDNAKNTVYLQMNSLKPEDTAVYYCAAYAYTSRWYGFDYWGQGTQVTVSS	low polyreactivity
